Laboratory results from the supplement of paper PMC11865577.

Key:
Test in all cases: pull-down binding Z-score (relative to library population); higher = stronger binding
Settings in all cases: RNA library: Library-2
[1] = tested on: TO-3-N3 (biotin conjugate)
Summary of the method: (§1)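 Binding is given as a Z-score against the library mean and standard deviation, calculated after removing the beads-only signal and averaging barcoded replicate probes without their highest and lowest values. Cy5- or Cy3-end-labelled RNA library (1 μg) was heat-folded in phosphate/NaCl/KCl buffer and incubated 60 min at 25 °C with streptavidin beads bearing 100 pmol of biotin-conjugated small molecule. After three washes, RNA eluted in hot SDS was hybridised to a DNA barcode microarray for 20 h at 55.5 °C.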

[2] = tested on: TO-3-N3-2 (biotin conjugate)
Summary of the method: as §1

[3] = tested on: TO-N3-2 (biotin conjugate)
Summary of the method: as §1

TO-N3 (biotin conjugate) = tested on: TO-N3 (biotin conjugate)
Summary of the method: as §1

Row | Sequence | pull-down binding Z-score [1] | pull-down binding Z-score [2] | pull-down binding Z-score [3] | pull-down binding Z-score (TO-N3 (biotin conjugate))
1 | AGGUAAAACCAACAGUGGUUGUUAAUGCAGCCAAUGUUUACCU | -0.405 | -0.615 | -1.45 | -1.2
2 | GCUAUAUGAUGC [IAV_invivo_PA_3_Motif_14+IAV_invivo_PA_3_Motif_14] | -0.0014 | -0.212 | -0.634 | -0.106
3 | GAGGUAAGUAUGAUACUUACCUG [U1snRNP5ss-8] | -0.664 | -0.377 | -1.02 | -0.957
4 | UCGUCAAUAGGGCGA [IAV_invivo_PB2_1_Motif_18+IAV_invivo_PB2_1_Motif_18] | -0.228 | -0.184 | -0.56 | -0.554
5 | GUCAAAGUGAC [SHAPE_invivo_SARS-CoV-2_Motif_385] | -0.196 | -0.543 | -0.851 | -0.434
6 | GUCUCUAUAGAAAUAGAGAU | 0.213 | -0.397 | -1.36 | -0.156
7 | GGUCCAGAACAAACCCAAGGAAAUUUUGGGGACC | 0.213 | 0.197 | -0.00332 | 0.0164
8 | GCCCCAUUCCUUGAUCGGCUUCGCCGAGAUCAGAAAUCCCUAAGAGGAAGGGGC [IAV_invivo_NS1_NEP_8_Motif_3+IAV_invivo_NS1_NEP_8_Motif_3] | -0.845 | -0.223 | 0.181 | -0.849
9 | CCCCAAAAGAAAUUAUCUUCUUAGAGGG | -0.165 | -0.623 | 0.109 | 0.286
10 | GACAGCAGAUAUAGUUGUC | 0.607 | 0.368 | -0.0659 | 0.331
11 | GAGUUUUUAGUGCAGUUGGUAACAUCUGUUACACACCAUCAAAACUU | -0.305 | -0.12 | 0.396 | 0.0323
12 | AUUAGAGAAAACAACAGAGUUGUUAUUUCUAGU [DMSMaPseq_invitro_SARS-CoV-2_Motif_378] | 0.0547 | -0.0987 | -0.787 | -0.17
13 | UGCUUUCGUGGUA | 0.137 | -0.292 | -0.505 | 0.0358
14 | GAGGUAAGUACGAUACUUACCUG [U1snRNP5ss-7] | -0.856 | -0.544 | -0.876 | -1.17
15 | UCCGUAAGUAGGAUACUUACCUG [U1snRNP5ss-21] | -0.611 | -0.419 | -0.337 | -0.61
16 | UACAAUUUGCCUAUGCCAACAGGAAUAGGUUUUUGUA | 0.38 | -0.176 | -1.3 | -0.122

Row | Sequence | pull-down binding Z-score [1] | pull-down binding Z-score [2] | pull-down binding Z-score [3] | pull-down binding Z-score (TO-N3 (biotin conjugate))
17 | AUUGACAUUAAUGGCAAUCUUCAUCCAGAUUCUGCCACUCUUGUUAGU [DMSMaPseq_invitro_SARS-CoV-2_Motif_73] | -0.785 | -0.197 | -0.113 | -0.723
18 | AACAUUAACCUCCACACGCAAGUUGUGGACAUGUCAAUGACAUAUGGACAACAGUUUGGUCCAACUUAUUUGGAUGGAGCUGAUGUU | -1 | -0.423 | -0.533 | -1.13
19 | AUCAAGACUAUUCAACCAAGGGUUGAAAAGAAAAAGCUUGAU | -0.561 | -0.241 | -1.25 | -0.904
20 | GUCAAAGUGACUAUUGAC [SHAPE_invitro_SARS-CoV-2_Motif_373] | -0.385 | -0.444 | -0.385 | -0.53
21 | UACUUUACUCAGAGUA [SHAPE_invitro_SARS-CoV-2_Motif_368] | -1.06 | -0.589 | -1.64 | -1.58
22 | UAAUCAGACAAGGAACUGAUUA | -0.426 | -0.537 | -0.943 | -0.836
23 | UGUUACUUUAUAUUGACAUUAAUGGCAAUCUUCAUCCAGAUUCUGCCACUCUUGUUAGUGACA | -0.354 | -0.104 | -0.868 | -0.585
24 | GGCUAUGUAACACAUGGCU | -0.114 | -0.449 | -1.06 | -0.351
25 | GUGCACUUGACCCUCUCUCAGAAACAAAGUGUAC [SHAPE_invivo_SARS-CoV-2_Motif_422] | 0.278 | -0.137 | -0.312 | 0.229
26 | CAUCAUAUGCAGCUUUUGCUACUGCUCAAGAAGCUUAUGAGCAGGCUGUUGCUAAUGGUG | -1.04 | -0.315 | -0.238 | -0.917
27 | GCCGGAUCAGACCGAGUGAUGGUAUCACCACUGGC [IAV_invivo_PB2_1_Motif_5+IAV_invivo_PB2_1_Motif_5] | -0.361 | -0.146 | 0.505 | -0.143
28 | AUAAAAUAGAAGAAUUAUUCUAUUCUUAU | -0.26 | -0.288 | -1.22 | -0.62
29 | GUUUAAGGAAGGUGUAGAGUUUCUUAGAGAC | -0.375 | 0.179 | 0.726 | 0.119
30 | UAGGCACGGCACUUGUGAAAGAUCAGAAGCUGGUGUUUG | -0.0752 | -0.246 | 0.362 | 0.0405
31 | AAAAAUCUUAGGGAAUUUGUGUUUAAGAAUAUUGAUGGUUAUUUUAAAAUAUAUUCUAAGCACACGCCUAUUAAUUUAGUGCGUGAUCUCCCUCAGGGUUUUU | -0.855 | 0.151 | -0.421 | -0.959
32 | AUGGCCCCGAUUUCAGCUAU [SHAPE_invivo_SARS-CoV-2_Motif_151] | -0.51 | -0.281 | -0.0238 | -0.668
